In PMC9609006:

B1: HorGH1 (Halothermothrix orenii H 168; E166A/E354G/M299R) (protein)
chain: MAKIIFPEDFIWGAATSSYQIEGAFNEDGKGESIWDRFSHTPGKIENGDTGDIACDHYHLYREDIELMKEIGIRSYRFSTSWPRILPEGKGRVNQKGLDFYKRLVDNLLKANIRPMITLYHWDLPQALQDKGGWTNRDTAKYFAEYARLMFEEFNGLVDLWVTHNAPWVVAFEGHAFGNHAPGTKDFKTALQVAHHLLLSHGMAVDIFREEDLPGEIGITLNLTPAYPAGDSEKDVKAASLLDDYINAWFLSPVFKGSYPEELHHIYEQNLGAFTTQPGDMDIISRDIDFLGINYYSRRVVRHKPGDNLFNAEVVKMEDRPSTEMGWEIYPQGLYDILVRVNKEYTDKPLYITGNGAAFDDKLTEEGKIHDEKRINYLGDHFKQAYKALKDGVPLRGYYVWSLMDNFEWAYGYSKRFGLIYVDYENGNRRFLKDSALWYREVIEKGQVEAN
B2: HorGH1 (Halothermothrix orenii H 168; E166A/E354G) (protein)
chain: MAKIIFPEDFIWGAATSSYQIEGAFNEDGKGESIWDRFSHTPGKIENGDTGDIACDHYHLYREDIELMKEIGIRSYRFSTSWPRILPEGKGRVNQKGLDFYKRLVDNLLKANIRPMITLYHWDLPQALQDKGGWTNRDTAKYFAEYARLMFEEFNGLVDLWVTHNAPWVVAFEGHAFGNHAPGTKDFKTALQVAHHLLLSHGMAVDIFREEDLPGEIGITLNLTPAYPAGDSEKDVKAASLLDDYINAWFLSPVFKGSYPEELHHIYEQNLGAFTTQPGDMDIISRDIDFLGINYYSRMVVRHKPGDNLFNAEVVKMEDRPSTEMGWEIYPQGLYDILVRVNKEYTDKPLYITGNGAAFDDKLTEEGKIHDEKRINYLGDHFKQAYKALKDGVPLRGYYVWSLMDNFEWAYGYSKRFGLIYVDYENGNRRFLKDSALWYREVIEKGQVEAN

Key:
purified protein [1] = substrate: OC[C@H]1O[C@H](F)[C@H](O)[C@@H](O)[C@@H]1O; experiment: purified protein; settings: thioglycosynthase reaction; glycosyl donor; thiol acceptor p-nitrothiophenol
purified protein [2] = substrate: O=[N+]([O-])c1ccc(S)cc1; experiment: purified protein; settings: thioglycosynthase reaction; thiol acceptor; donor α-D-glucopyranosyl fluoride

Row | Protein | Km (purified protein [1]) [mM] | Km (purified protein [2]) [mM]
1 | B1 | 2.26 | 3.82
2 | B2 | 2.12 | 7.46
